Plasminogen activation on fibrin plates: fibrinolytic zone of the mixture of EPF3 and plasminogen against that of EPF3 alone (3, 6, 18 h, 37°C) data for one molecule are collected here from publication PMC8819685.

This experiment addresses Human plasminogen (human).

Human plasminogen (human), sequence (P00747 20-810): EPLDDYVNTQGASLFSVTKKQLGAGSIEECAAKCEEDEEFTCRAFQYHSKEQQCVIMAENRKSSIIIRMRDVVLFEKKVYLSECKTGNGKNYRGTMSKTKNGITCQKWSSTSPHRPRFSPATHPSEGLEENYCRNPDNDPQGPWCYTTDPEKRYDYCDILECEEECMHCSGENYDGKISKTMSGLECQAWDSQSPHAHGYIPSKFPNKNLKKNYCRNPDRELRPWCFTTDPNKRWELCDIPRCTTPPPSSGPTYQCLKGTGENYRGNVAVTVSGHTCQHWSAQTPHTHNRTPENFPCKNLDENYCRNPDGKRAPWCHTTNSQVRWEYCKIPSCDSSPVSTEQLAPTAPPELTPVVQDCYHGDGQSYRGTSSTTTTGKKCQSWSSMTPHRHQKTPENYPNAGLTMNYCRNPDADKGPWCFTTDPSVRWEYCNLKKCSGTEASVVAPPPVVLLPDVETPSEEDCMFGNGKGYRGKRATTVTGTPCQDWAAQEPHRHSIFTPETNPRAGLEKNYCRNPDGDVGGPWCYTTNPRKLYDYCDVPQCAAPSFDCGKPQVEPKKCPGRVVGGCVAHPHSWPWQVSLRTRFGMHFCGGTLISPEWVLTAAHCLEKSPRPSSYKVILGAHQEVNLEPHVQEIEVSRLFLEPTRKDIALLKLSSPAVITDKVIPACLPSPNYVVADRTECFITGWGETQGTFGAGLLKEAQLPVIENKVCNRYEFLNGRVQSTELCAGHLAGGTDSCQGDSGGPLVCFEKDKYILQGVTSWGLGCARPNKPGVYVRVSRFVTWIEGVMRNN

B1: EPF3, fibrinolytic protein from Pheretima vulgaris (enzyme)
chain: ILGGTEARVGEIPWQLSQQRGGSHSCGASLLRPGSALSAAHCVDGAPPADVRIVAGLHLRSDESTAVASLAESFLIHPSYNVGEGTFPNDIAIIYLLTNINSAPVENIDFALLPPDNVEQFVGFTCVLSGWGRTSASNVLPDALQKVSIDVITTAECDSRMAAVAGADCTDAHIAVFDPALQKGSCNGDSGGPMNCPLSGEFVVAGVTSWGISGGGACLPEYPSVYTRTGFYRQWIIDNIR
Regarding B1, the plasminogen activation on fibrin plates: fibrinolytic zone of the mixture of EPF3 and plasminogen against that of EPF3 alone (3, 6, 18 h, 37°C) turned out to be 20.2%.
